# Assay results published in paper doi:10.1101/2025.02.03.636288.
# Target: MBP-CARD9 (human) (UniProt Q9H257)
# Experiment: other fluorescence titration
# MBP-CARD9 (human), sequence (Q9H257 whole entry): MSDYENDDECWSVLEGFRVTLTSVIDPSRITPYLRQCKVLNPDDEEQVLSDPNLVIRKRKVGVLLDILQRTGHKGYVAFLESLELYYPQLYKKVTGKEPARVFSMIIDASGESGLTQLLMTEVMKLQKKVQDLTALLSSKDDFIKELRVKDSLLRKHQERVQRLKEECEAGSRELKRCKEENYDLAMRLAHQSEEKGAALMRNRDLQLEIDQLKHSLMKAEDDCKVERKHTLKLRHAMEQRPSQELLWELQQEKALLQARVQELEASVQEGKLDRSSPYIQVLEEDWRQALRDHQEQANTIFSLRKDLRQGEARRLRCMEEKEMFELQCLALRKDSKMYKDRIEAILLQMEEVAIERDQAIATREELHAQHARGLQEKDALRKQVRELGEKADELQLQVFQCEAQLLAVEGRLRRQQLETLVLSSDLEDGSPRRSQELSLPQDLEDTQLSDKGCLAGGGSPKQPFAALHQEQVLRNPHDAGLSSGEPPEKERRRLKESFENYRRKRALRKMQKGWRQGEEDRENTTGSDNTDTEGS
substance,measurement,value
"CK2 complex (New England Bio, P6010L) (from UniProt P68400 1-391; P67870 1-215)",Kd,300 nM
